# Results taken from paper doi:10.1101/2023.08.01.551421 (bioRxiv, 2023).
# T1: human guanylate-binding protein 1 (GBP1), wild type, non-farnesylated (human), P32455
# T1 chain: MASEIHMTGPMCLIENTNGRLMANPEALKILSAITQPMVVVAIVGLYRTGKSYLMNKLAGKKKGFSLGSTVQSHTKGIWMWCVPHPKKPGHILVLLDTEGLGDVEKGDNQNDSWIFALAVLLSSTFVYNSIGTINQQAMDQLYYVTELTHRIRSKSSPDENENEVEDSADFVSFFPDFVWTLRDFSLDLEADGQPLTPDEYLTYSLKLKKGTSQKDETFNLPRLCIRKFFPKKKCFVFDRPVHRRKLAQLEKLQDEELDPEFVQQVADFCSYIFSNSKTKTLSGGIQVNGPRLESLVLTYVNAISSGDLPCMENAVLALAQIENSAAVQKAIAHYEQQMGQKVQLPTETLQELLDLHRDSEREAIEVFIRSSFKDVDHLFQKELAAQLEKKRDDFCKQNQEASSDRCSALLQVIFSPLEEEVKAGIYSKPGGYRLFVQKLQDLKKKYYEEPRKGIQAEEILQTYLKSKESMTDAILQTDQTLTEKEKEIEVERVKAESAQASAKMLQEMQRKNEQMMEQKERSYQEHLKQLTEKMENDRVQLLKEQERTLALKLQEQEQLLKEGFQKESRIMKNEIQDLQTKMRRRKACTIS
# T2: human guanylate-binding protein 1 (GBP1), wild type, farnesylated (human), P32455
# T2 chain: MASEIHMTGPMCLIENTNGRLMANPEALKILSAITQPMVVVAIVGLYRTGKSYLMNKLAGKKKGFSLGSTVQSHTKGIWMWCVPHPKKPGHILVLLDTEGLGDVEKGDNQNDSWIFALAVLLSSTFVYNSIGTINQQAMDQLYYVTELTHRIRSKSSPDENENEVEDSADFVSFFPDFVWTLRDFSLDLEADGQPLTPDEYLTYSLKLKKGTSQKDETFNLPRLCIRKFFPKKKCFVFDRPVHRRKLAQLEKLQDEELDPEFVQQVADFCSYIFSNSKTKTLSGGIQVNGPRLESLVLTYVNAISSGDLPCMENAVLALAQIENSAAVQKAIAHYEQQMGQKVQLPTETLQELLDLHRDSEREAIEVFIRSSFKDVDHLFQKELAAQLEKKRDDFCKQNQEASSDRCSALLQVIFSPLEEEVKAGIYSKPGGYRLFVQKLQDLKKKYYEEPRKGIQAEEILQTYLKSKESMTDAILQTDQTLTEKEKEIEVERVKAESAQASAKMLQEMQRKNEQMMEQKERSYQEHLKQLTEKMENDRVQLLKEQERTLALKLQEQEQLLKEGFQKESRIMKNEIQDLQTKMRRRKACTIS
# Assays:
# [1] = target: GBP1 Δ207-223 variant, farnesylated (human) (UniProt P32455); experiment: cross-linking
# [2] = target: GBP1 M139E, non-farnesylated (human) (UniProt P32455); experiment: SEC
# [3] = target: GBP1 M139R, non-farnesylated (human) (UniProt P32455); experiment: SEC
# [4] = target: GBP1 Δ207-223 variant, non-farnesylated (human) (UniProt P32455)
# [5] = target: GBP1 Δ207-223 variant, non-farnesylated (human) (UniProt P32455); experiment: cross-linking
# [6] = target: T1, human guanylate-binding protein 1 …; experiment: cross-linking; settings: remark: other sources report otherwise
# [7] = target: T1, human guanylate-binding protein 1 …; experiment: GTP hydrolysis assay; settings: remark: other sources report otherwise
# [8] = target: T2, human guanylate-binding protein 1 …; experiment: cryo-EM structure; settings: remark: other sources report otherwise
molecule,measurement,setting,value
"GBP1 Δ207-223 variant, farnesylated (from UniProt P32455) (natural protein)",stoichiometry N,[1],2
"GBP1 M139E, non-farnesylated (from UniProt P32455 1-592) (natural protein)",stoichiometry N,[2],2
"GBP1 M139R, non-farnesylated (from UniProt P32455 1-592) (natural protein)",stoichiometry N,[3],2
"GBP1 Δ207-223 variant, non-farnesylated (from UniProt P32455 1-592) (natural protein)",catalytic GTPase activity against wild-type (GTP hydrolysis assay),[4],1.7 fold
same,stoichiometry N,[5],2
"human guanylate-binding protein 1 (GBP1), wild type, non-farnesylated, P32455 1-592 (natural protein) MASEIHMTGPMCLIENTNGRLMANPEALKILSAITQPMVVVAIVGLYRTGKSYLMNKLAGKKKGFSLGSTVQSHTKGIWMWCVPHPKKPGHILVLLDTEGLGDVEKGDNQNDSWIFALAVLLSSTFVYNSIGTINQQAMDQLYYVTELTHRIRSKSSPDENENEVEDSADFVSFFPDFVWTLRDFSLDLEADGQPLTPDEYLTYSLKLKKGTSQKDETFNLPRLCIRKFFPKKKCFVFDRPVHRRKLAQLEKLQDEELDPEFVQQVADFCSYIFSNSKTKTLSGGIQVNGPRLESLVLTYVNAISSGDLPCMENAVLALAQIENSAAVQKAIAHYEQQMGQKVQLPTETLQELLDLHRDSEREAIEVFIRSSFKDVDHLFQKELAAQLEKKRDDFCKQNQEASSDRCSALLQVIFSPLEEEVKAGIYSKPGGYRLFVQKLQDLKKKYYEEPRKGIQAEEILQTYLKSKESMTDAILQTDQTLTEKEKEIEVERVKAESAQASAKMLQEMQRKNEQMMEQKERSYQEHLKQLTEKMENDRVQLLKEQERTLALKLQEQEQLLKEGFQKESRIMKNEIQDLQTKMRRRKACTIS",stoichiometry N,[6],2
same,Kd,[7],1.9 µM
"human guanylate-binding protein 1 (GBP1), wild type, farnesylated, P32455 (natural protein, here or on the partner: farnesyl moiety, C-terminal (CaaX box motif); farnesyl moiety, C-terminal (CaaX box motif)) MASEIHMTGPMCLIENTNGRLMANPEALKILSAITQPMVVVAIVGLYRTGKSYLMNKLAGKKKGFSLGSTVQSHTKGIWMWCVPHPKKPGHILVLLDTEGLGDVEKGDNQNDSWIFALAVLLSSTFVYNSIGTINQQAMDQLYYVTELTHRIRSKSSPDENENEVEDSADFVSFFPDFVWTLRDFSLDLEADGQPLTPDEYLTYSLKLKKGTSQKDETFNLPRLCIRKFFPKKKCFVFDRPVHRRKLAQLEKLQDEELDPEFVQQVADFCSYIFSNSKTKTLSGGIQVNGPRLESLVLTYVNAISSGDLPCMENAVLALAQIENSAAVQKAIAHYEQQMGQKVQLPTETLQELLDLHRDSEREAIEVFIRSSFKDVDHLFQKELAAQLEKKRDDFCKQNQEASSDRCSALLQVIFSPLEEEVKAGIYSKPGGYRLFVQKLQDLKKKYYEEPRKGIQAEEILQTYLKSKESMTDAILQTDQTLTEKEKEIEVERVKAESAQASAKMLQEMQRKNEQMMEQKERSYQEHLKQLTEKMENDRVQLLKEQERTLALKLQEQEQLLKEGFQKESRIMKNEIQDLQTKMRRRKACTIS",subunits (outstretched GBP1 dimers) in one planar disk,[8],30
